This is an account of results in patent publication US20240166688A1 (NIBEC, published 2024).

What is called Kd is a measure of binding affinity in units of concentration. A low value points to higher affinity. The term koff denotes the first-order rate constant of dissociation. A high value points to a short-lived complex. The term kon denotes a measure of how fast the partners come together. Higher therefore signals faster complex formation.

This assay deals with HDAC5 protein (Abcam, MA, USA). The assay is described as follows: SPR, Biacore T200; HDAC5 amine-coupled to CM5 chip, peptide as analyte, 1:1 model. In general terms: Surface plasmon resonance follows binding to a sensor surface in real time, without labels.
HDAC5 protein (Abcam, MA, USA), sequence (chain, as listed by the source): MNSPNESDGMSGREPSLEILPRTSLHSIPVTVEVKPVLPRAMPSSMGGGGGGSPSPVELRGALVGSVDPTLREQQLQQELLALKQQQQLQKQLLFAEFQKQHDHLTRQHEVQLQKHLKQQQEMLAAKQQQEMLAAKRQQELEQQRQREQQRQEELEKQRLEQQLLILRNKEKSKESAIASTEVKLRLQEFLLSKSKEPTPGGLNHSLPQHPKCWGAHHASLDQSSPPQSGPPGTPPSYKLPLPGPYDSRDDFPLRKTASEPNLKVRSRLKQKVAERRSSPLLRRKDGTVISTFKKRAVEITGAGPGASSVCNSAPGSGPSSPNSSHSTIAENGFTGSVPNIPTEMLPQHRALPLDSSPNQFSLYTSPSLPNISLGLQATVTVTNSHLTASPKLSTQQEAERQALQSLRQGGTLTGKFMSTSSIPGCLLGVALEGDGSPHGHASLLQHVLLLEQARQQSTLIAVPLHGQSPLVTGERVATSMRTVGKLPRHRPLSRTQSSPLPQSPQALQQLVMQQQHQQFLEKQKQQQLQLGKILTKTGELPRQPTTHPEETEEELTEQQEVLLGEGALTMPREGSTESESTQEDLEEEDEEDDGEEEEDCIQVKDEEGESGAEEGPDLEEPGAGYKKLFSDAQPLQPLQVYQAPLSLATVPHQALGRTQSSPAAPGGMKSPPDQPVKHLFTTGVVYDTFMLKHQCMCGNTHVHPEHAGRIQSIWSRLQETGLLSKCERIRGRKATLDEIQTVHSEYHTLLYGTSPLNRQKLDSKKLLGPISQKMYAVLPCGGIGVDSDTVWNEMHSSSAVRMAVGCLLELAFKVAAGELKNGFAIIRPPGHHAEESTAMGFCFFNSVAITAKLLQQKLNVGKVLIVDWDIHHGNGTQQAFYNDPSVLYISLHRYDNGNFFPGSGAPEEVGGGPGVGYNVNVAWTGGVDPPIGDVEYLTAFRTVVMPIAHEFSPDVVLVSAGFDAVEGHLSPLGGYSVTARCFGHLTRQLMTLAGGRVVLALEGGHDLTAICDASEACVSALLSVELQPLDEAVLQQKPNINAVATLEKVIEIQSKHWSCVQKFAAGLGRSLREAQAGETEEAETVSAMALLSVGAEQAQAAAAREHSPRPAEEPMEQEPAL
With GKMSTRGRKCCRRKK [peptide of SEQ ID NO: 5 (M4)], binding was characterised by a dissociation constant (Kd) of 468 nM, the koff turned out to be 0.0309 s⁻¹ and the association rate constant (kon) was 65900 M⁻¹ s⁻¹.

GKMSTRGRKMCRRKK [peptide of SEQ ID NO: 6 (M5)] had a Kd of 444 nM, a koff of 0.0446 s⁻¹ and a kon of 100000 M⁻¹ s⁻¹.

GKCSTRGRKCMRRKK [peptide of SEQ ID NO: 2 (M1)]: the affinity, expressed as Kd, was 924 nM; the koff was determined as 0.0687 s⁻¹; the on-rate (kon) was 74400 M⁻¹ s⁻¹.

Consider GKMSTRGRKMMRRKK [peptide of SEQ ID NO: 8 (M7)], for which binding was put at a Kd of 86.8 nM, the koff is 0.00478 s⁻¹ and the on-rate constant (kon) worked out at 55000 M⁻¹ s⁻¹.

Molecule GKCSTRGRKCCRRKK (also called AIP) [peptide of SEQ ID NO: 1] showed a Kd of 676 nM, a koff of 0.0726 s⁻¹ and a kon of 108000 M⁻¹ s⁻¹.

Turning to GKMSTRGRKCMRRKK [peptide of SEQ ID NO: 7 (M6)], the dissociation constant Kd turned out to be 704 nM, the dissociation rate constant (koff) was determined as 0.0476 s⁻¹ and the kon was 67500 M⁻¹ s⁻¹.

Turning to GKCSTRGRKMCRRKK [peptide of SEQ ID NO: 3 (M2)], the Kd worked out at 725 nM, the koff worked out at 0.0595 s⁻¹ and the association rate constant (kon) is 82100 M⁻¹ s⁻¹.

In the case of GKCSTRGRKMMRRKK [peptide of SEQ ID NO: 4 (M3)], the Kd worked out at 940 nM, the off-rate constant (koff) is 0.0679 s⁻¹ and the on-rate (kon) is 72200 M⁻¹ s⁻¹.
